We go through six molecules from patent publication US20100260668A1 (published 2010).

A value given as a limit tells only on which side of the number the result lay.

Assay [1] has as its target T1, recombinant human HGF (human, UniProt P14210 32-728).
T1 construct: The target there is entered as this HGF; also called hepatocyte growth factor
Kind of assay: competition ELISA: DVD-Ig co-incubated with 2 nM soluble c-Met Fc on coated HGF (competitor c-Met Fc). In general terms: An ELISA detects its analyte on a solid surface through an enzyme-linked reagent.

Assay [2] concerns the target NRP1 (Neuropilin-1 Npn-1-His tag) (UniProt O14786-2 22-644). Kind of assay: SPR (Biacore); parent antibody. (SPR reads the build-up and loss of mass on a sensor chip optically.)
The target of assay [3] is T2, VEGF (VEGF 1-165 aa, R&D Systems 293-VE-010) (UniProt P15692 27-191).
T2 construct: bought reagent; also called vascular endothelial growth factor
Description: Direct bind ELISA, VEGF coated on plate; VEGF domain C-term., HC short/LC short.

The target of assay [4] is T3, PlGF (Placental GF) (UniProt P49763-2 21-149, limits assumed).
T3 sequence (looked up): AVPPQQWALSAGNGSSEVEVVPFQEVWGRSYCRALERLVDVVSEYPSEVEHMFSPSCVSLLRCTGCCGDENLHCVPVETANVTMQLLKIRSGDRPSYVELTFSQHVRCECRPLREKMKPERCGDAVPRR
Description: SPR (Biacore); parent antibody.

T1 sequence (P14210 32-728 limits assumed): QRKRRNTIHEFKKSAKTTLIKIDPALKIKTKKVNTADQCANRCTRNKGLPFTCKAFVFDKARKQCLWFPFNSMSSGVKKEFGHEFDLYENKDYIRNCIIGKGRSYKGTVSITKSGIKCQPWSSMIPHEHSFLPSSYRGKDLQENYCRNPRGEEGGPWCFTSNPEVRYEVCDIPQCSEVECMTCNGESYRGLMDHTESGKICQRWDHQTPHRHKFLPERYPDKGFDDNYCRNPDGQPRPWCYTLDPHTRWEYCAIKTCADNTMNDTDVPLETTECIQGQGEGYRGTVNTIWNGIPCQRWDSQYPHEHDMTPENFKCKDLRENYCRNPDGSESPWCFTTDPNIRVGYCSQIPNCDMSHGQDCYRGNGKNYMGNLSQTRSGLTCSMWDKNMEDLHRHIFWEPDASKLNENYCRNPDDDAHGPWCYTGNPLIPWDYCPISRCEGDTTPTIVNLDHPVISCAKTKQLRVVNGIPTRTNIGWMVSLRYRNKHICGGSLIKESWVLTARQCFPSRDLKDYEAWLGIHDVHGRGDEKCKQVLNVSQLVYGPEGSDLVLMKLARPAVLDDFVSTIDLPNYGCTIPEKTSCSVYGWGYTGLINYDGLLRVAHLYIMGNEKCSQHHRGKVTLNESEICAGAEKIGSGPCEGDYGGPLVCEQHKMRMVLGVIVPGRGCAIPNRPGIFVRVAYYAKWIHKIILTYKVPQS
T2 sequence (P15692 other isoform, or with tags, fused parts or gaps limits assumed): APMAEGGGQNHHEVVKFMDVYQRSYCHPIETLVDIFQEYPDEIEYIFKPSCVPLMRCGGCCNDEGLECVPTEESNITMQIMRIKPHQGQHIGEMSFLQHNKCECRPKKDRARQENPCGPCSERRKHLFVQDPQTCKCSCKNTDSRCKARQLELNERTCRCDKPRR

B1: DVD045 (VEGF (seq. 1) N-terminal / HGF (seq. 1) C-terminal DVD-Ig, linker set 1) (bispecific antibody, human IgG1, kappa)
heavy: not shown
light: DIQMTQSPSSLSASVGDRVTITCSASQDISNYLNWYQQKPGKAPKVLIYFTSSLHSGVPSRFSGSGSGTDFTLTISSLQPEDFATYYCQQYSTVPWTFGQGTKVEIKRTVAAPDIQMTQSPSSVSASVGDRVTITCRASQGISSWLAWYQQKPGKAPNLLIYEASSLQSGVPSRFGGSGSGTDFTLTISSLQPEDFATYYCQQANGFPWTFGQGTKVEIKRTVAAPSVFIFPPSDEQLKSGTASVVCLLNNFYPREAKVQWKVDNALQSGNSQESVTEQDSKDSTYSLSSTLTLSKADYEKHKVYACEVTHQGLSSPVTKSFNRGEC
notes: also called DVD045H/DVD045L
Turning to B1, the half-maximal inhibitory concentration (IC50) in assay [1] was greater than 100 nM.

B2: AB016 (antibody, human IgG1, kappa, V domains shown)
VH: EVQLVESGGGLVQPGGSLRLSCAASGFSFSSEPISWVRQAPGKGLEWVSSITGKNGYTYYADSVKGRFTISADTSKNTAYLQMNSLRAEDTAVYYCARWGKKVYGMDVWGQGTLVTVSS
VL: DIQMTQSPSSLSASVGDRVTITCRASQSISSYLAWYQQKPGKAPKLLIYGASSRASGVPSRFSGSGSGTDFTLTISSLQPEDFATYYCQQYMSVPITFGQGTKVEIKR
notes: also called AB016VH; AB016VL
With B2, in assay [2], the Kd was 2.67 nM, the koff turned out to be 0.00039 s⁻¹ and the kon stood at 147000 M⁻¹ s⁻¹.

B3: DVD513 (bispecific antibody, human IgG1, kappa)
heavy: not shown
light: QAVVTQESALTTSPGETVTLTCRSSTGAVTTSNYANWVQEKPDHLFTGLIGGTNNRAPGVPARFSGSLIGDKAALTITGAQTEDEAIYFCALWYSNHWVFGGGTKLTVLGQPKAAPDIQMTQSPSSLSASVGDRVTITCRASQDVSTAVAWYQQKPGKAPKLLIYSASFLYSGVPSRFSGSGSGTDFTLTISSLQPEDFATYYCQQSYTTPPTFGQGTKVEIKRTVAAPSVFIFPPSDEQLKSGTASVVCLLNNFYPREAKVQWKVDNALQSGNSQESVTEQDSKDSTYSLSSTLTLSKADYEKHKVYACEVTHQGLSSPVTKSFNRGEC
notes: DVD-Ig; N-term; AB073 (DLL4), C-term; AB070 (VEGF); HC linker short, LC linker short; also called DVD-Ig DVD513; DVD513H/DVD513L
B3: the EC50 in assay [3] came out at 58.5 nM.

B4: DVD034 (HGF (seq. 1) N-terminal / RON (seq. 1) C-terminal DVD-Ig) (bispecific antibody, human IgG1, kappa)
heavy: not shown
light: DIQMTQSPSSVSASVGDRVTITCRASQGISSWLAWYQQKPGKAPNLLIYEASSLQSGVPSRFGGSGSGTDFTLTISSLQPEDFATYYCQQANGFPWTFGQGTKVEIKRTVAAPDVVMTQSPLSLPVTPGEPASISCRSSQSLLHSNGFNYVDWYLQKPGQSPHLLIYFGSYRASGVPDRFSGSGSGTDFTLKISRVEAEDVGVYYCMQALQTPPWTFGQGTKVEIRRTVAAPSVFIFPPSDEQLKSGTASVVCLLNNFYPREAKVQWKVDNALQSGNSQESVTEQDSKDSTYSLSSTLTLSKADYEKHKVYACEVTHQGLSSPVTKSFNRGEC
notes: also called DVD034H/DVD034L
In the case of B4, in assay [1], the IC50 turned out to be 0.34 nM.

B5: AB047 (antibody, human IgG1, kappa, V domains shown)
VH: QVQLQQSGAELVKPGASVKISCKASGYTFTDYYINWVKLAPGQGLEWIGWIYPGSGNTKYNEKFKGKATLTIDTSSSTAYMQLSSLTSEDTAVYFCVRDSPFFDYWGQGTLLTVSS
VL: DIVLTQSPDSLAVSLGERVTMNCKSSQSLLNSGMRKSFLAWYQQKPGQSPKLLIYWASTRESGVPDRFTGSGSGTDFTLTISSVQAEDVAVYYCKQSYHLFTFGSGTKLEIKR
notes: also called AB047VH; AB047VL
For the molecule B5, in assay [4], the Kd turned out to be 0.0285 nM, the off-rate constant (koff) was 0.000108 s⁻¹ and the kon amounted to 3.8e+06 M⁻¹ s⁻¹.

B6: DVD033 (RON (seq. 1) N-terminal / HGF (seq. 1) C-terminal DVD-Ig) (bispecific antibody, human IgG1, kappa)
heavy: not shown
light: DVVMTQSPLSLPVTPGEPASISCRSSQSLLHSNGFNYVDWYLQKPGQSPHLLIYFGSYRASGVPDRFSGSGSGTDFTLKISRVEAEDVGVYYCMQALQTPPWTFGQGTKVEIRRTVAAPDIQMTQSPSSVSASVGDRVTITCRASQGISSWLAWYQQKPGKAPNLLIYEASSLQSGVPSRFGGSGSGTDFTLTISSLQPEDFATYYCQQANGFPWTFGQGTKVEIKRTVAAPSVFIFPPSDEQLKSGTASVVCLLNNFYPREAKVQWKVDNALQSGNSQESVTEQDSKDSTYSLSSTLTLSKADYEKHKVYACEVTHQGLSSPVTKSFNRGEC
notes: also called DVD033H/DVD033L
B6: the IC50 in assay [1] is 8.7 nM.

By IC50 is commonly meant the concentration at which inhibition is half-maximal. By Kd is commonly meant the free concentration of one partner at which half of the binding sites on the other are occupied at equilibrium, for simple one-to-one binding. The koff is a measure of how fast the partners let go of each other. One may read the kon as a measure of how fast the partners come together. Broadly, the EC50 is the concentration that produces a half-maximal response. High values mean a need for much substance, low ones an effect from little substance.
